We go through 1 molecule from patent publication US20210000895A1 (RHODE ISLAND HOSPITAL, published 2021).

The test has as its target CD4 receptor on primary human CD4+ T lymphocytes (human, UniProt P01730 26-458). The experiment in a line: cell-based or functional assay.

B1: IL-16/Lamp2b fusion protein (Interleukin (IL)-16 C-terminal 20 amino acid domain fused to the N-terminus of lysosome-associated membrane protein 2 variant b), … (other)
chain: GNSTMGSGTIVIRRKSLQSKETTAAGDSGSGSGSGGSSLELNLTDSENATCLYAKWQMNFTVRYETTNKTYKTVTISDHGTVTYNGSICGDDQNGPKIAVQFGPGFSWIANFTKAASTYSIDSVSFSYNTGDNTTFPDAEDKGILTVDELLAIRIPLNDLFRCNSLSTLEKNDVVQHYWDVLVQAFVQNGTVSTNEFLCDKDKTSTVAPTIHTTVPSPTTTPTPKEKPEAGTYSVNNGNDTCLLATMGLQLNITQDKVASVININPNTTHSTGSCRSHTALLRLNSSTIKYLDFVFAVKNENRFYLKEVNISMYLVNGSVFSIANNNLSYWDAPLGSSYMCNKEQTVSVSGAFQINTFDLRVQPFNVTQGKYSTAQECSLDDDTILIPIIVGAGLSGLIIVIVIAYVIGRRKSYAGYQTLGSGYPYDVPDYA
As for B1, the “Tat protein delivery to rCD4+T lymphocytes (Western blot of intracellular Tat), EXO^CD4-Tat exosomes compared to EXO-Tat exosomes” value came out at 20 fold.
